Assay results: the supplement of paper PMC11316812
± gives the standard deviation of the averaged measurements.

Key:
[1] = tested on: MCF7; assay: percentage of EdU-negative (G0-arrested) nuclei per well, 72 h; higher = more G0 arrest; conditions: reference: sequence is the full UniProt precursor, the tested protein was the secreted form or ectodomain
[2] = tested on: hTERT-HMEC; assay: as above; conditions: reference: sequence is the full UniProt precursor, the tested protein was the secreted form or ectodomain
[3] = protein concentration 0.0225 µM
[4] = protein concentration 0.01375 µM
[5] = protein concentration 0.1375 µM
[6] = protein concentration 0.01525 µM
[7] = protein concentration 0.1525 µM
[8] = protein concentration 0.00925 µM
[9] = protein concentration 0.0925 µM
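Also: secreted proteins added to cultured cells, EdU pulse at the end, nuclei found by Hoechst imaging, EdU status from nuclear versus surrounding ring intensity ratio, PBS as neutral control.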

MSFPCKFVASFLLIFNVSSKGAVSKEITNALETWGALGQDINLDIPSFQMSDDIDDIKWEKTSDKKKIAQFRKEKETFKEKDTYKLFKNGTLKIKHLKTDDQDIYKVSIYDTKGKNVLEKIFDLKIQERVSKPKISWTCINTTLTCEVMNGTDPELNLYQDGKHLKLSQRVITHKWTTSLSAKFKCTAGNKVSKESSVEPVSCPEKGLDIYLIIGICGGGSLLMVFVALLVFYITKRKKQRSRRNDEELETRAHRVATEERGRKPHQIPASTPQNPATSQHPPPPPGHRSQAPSHRPPPPGHRVQHQPQKRPPAPSGTQVHQQKGPPLPRPRVQPKPPHGAAENSLSPSSN
percentage of EdU-negative [1, 3]: 24.6 ± 0.84% | percentage of EdU-negative ([1]; protein concentration 0.225 µM): 26.8 ± 0.55% | percentage of EdU-negative [2, 3]: 5.27 ± 1.3% | percentage of EdU-negative ([2]; protein concentration 0.225 µM): 5.92 ± 0.1%

MSGAPTAGAALMLCAATAVLLSAQGGPVQSKSPRFASWDEMNVLAHGLLQLGQGLREHAERTRSQLSALERRLSACGSACQGTEGSTDLPLAPESRVDPEVLHSLQTQLKAQNSRIQQLFHKVAQQQRHLEKQHLRIQHLQSQFGLLDHKHLDHEVAKPARRKRLPEMAQPVDPAHNVSRLHRLPRDCQELFQVGERQSGLFEIQPQGSPPFLVNCKMTSDGGWTVIQRRHDGSVDFNRPWEAYKAGFGDPHGEFWLGLEKVHSITGDRNSRLAVQLRDWDGNAELLQFSVHLGGEDTAYSLQLTAPVAGQLGATTVPPSGLSVPFSTWDQDHDLRRDKNCAKSLSGGWWFGTCSHSNLNGQYFRSIPQQRQKLKKGIFWKTWRGRYYPLQATTMLIQPMAAEAAS [Q9BY76]
percentage of EdU-negative [1, 4]: 23.9 ± 1.8% | percentage of EdU-negative [1, 5]: 27.4 ± 1.9% | percentage of EdU-negative [2, 4]: 5.28 ± 0.74% | percentage of EdU-negative [2, 5]: 6.14 ± 0.59%

MSGGHQLQLAALWPWLLMATLQAGFGRTGLVLAAAVESERSAEQKAIIRVIPLKMDPTGKLNLTLEGVFAGVAEITPAEGKLMQSHPLYLCNASDDDNLEPGFISIVKLESPRRAPRPCLSLASKARMAGERGASAVLFDITEDRAAAEQLQQPLGLTWPVVLIWGNDAEKLMEFVYKNQKAHVRIELKEPPAWPDYDVWILMTVVGTIFVIILASVLRIRCRPRHSRPDPLQQRTAWAISQLATRRYQASCRQARGEWPDSGSSCSSAPVCAICLEEFSEGQELRVISCLHEFHRNCVDPWLHQHRTCPLCMFNITEGDSFSQSLGPSRSYQEPGRRLHLIRQHPGHAHYHLPAAYLLGPSRSAVARPPRPGPFLPSQEPGMGPRHHRFPRAAHPRAPGEQQRLAGAQHPYAQGWGLSHLQSTSQHPAACPVPLRRARPPDSSGSGESYCTERSGYLADGPASDSSSGPCHGSSSDSVVNCTDISLQGVHGSSSTFCSSLSSDFDPLVYCSPKGDPQRVDMQPSVTSRPRSLDSVVPTGETQVSSHVHYHRHRHHHYKKRFQWHGRKPGPETGVPQSRPPIPRTQPQPEPPSPDQQVTRSNSAAPSGRLSNPQCPRALPEPAPGPVDASSICPSTSSLFNLQKSSLSARHPQRKRRGGPSEPTPGSRPQDATVHPACQIFPHYTPSVAYPWSPEAHPLICGPPGLDKRLLPETPGPCYSNSQPVWLCLTPRQPLEPHPPGEGPSEWSSDTAEGRPCPYPHCQVLSAQPGSEEELEELCEQAV [Q68DV7]
percentage of EdU-negative ([1]; protein concentration 0.032 µM): 24.9 ± 1% | percentage of EdU-negative ([1]; protein concentration 0.32 µM): 23.5 ± 1.3% | percentage of EdU-negative ([2]; protein concentration 0.032 µM): 4.69 ± 0.58% | percentage of EdU-negative ([2]; protein concentration 0.32 µM): 4.96 ± 0.2%

MSGGRAPAVLLGGVASLLLSFVWMPALLPVASRLLLLPRVLLTMASGSPPTQPSPASDSGSGYVPGSVSAAFVTCPNEKVAKEIARAVVEKRLAACVNLIPQITSIYEWKGKIEEDSEVLMMIKTQSSLVPALTDFVRSVHPYEVAEVIALPVEQGNFPYLQWVRQVTESVSDSITVLP
percentage of EdU-negative [1, 3]: 25.3 ± 1.7% | percentage of EdU-negative ([1]; protein concentration 0.225 µM): 25.2 ± 1.5% | percentage of EdU-negative [2, 3]: 4.5 ± 0.32% | percentage of EdU-negative ([2]; protein concentration 0.225 µM): 5.97 ± 0.34%

MSGPGTAAVALLPAVLLALLAPWAGRGGAAAPTAPNGTLEAELERRWESLVALSLARLPVAAQPKEAAVQSGAGDYLLGIKRLRRLYCNVGIGFHLQALPDGRIGGAHADTRDSLLELSPVERGVVSIFGVASRFFVAMSSKGKLYGSPFFTDECTFKEILLPNNYNAYESYKYPGMFIALSKNGKTKKGNRVSPTMKVTHFLPRL
percentage of EdU-negative [1, 6]: 27.2 ± 2.4% | percentage of EdU-negative [1, 7]: 28.58 ± 0.13% | percentage of EdU-negative [2, 6]: 5.05 ± 0.36% | percentage of EdU-negative [2, 7]: 5.7993 ± 0.0024%

MSILFYVIFLAYLRGIQGNNMDQRSLPEDSLNSLIIKLIQADILKNKLSKQMVDVKENYQSTLPKAEAPREPERGGPAKSAFQPVIAMDTELLRQQRRYNSPRVLLSDSTPLEPPPLYLMEDYVGSPVVANRTSRRKRYAEHKSHRGEYSVCDSESLWVTDKSSAIDIRGHQVTVLGEIKTGNSPVKQYFYETRCKEARPVKNGCRGIDDKHWNSQCKTSQTYVRALTSENNKLVGWRWIRIDTSCVCALSRKIGRT
percentage of EdU-negative [1, 8]: 25.37 ± 0.049% | percentage of EdU-negative [1, 9]: 27.3 ± 1.8% | percentage of EdU-negative [2, 8]: 4.75 ± 0.28% | percentage of EdU-negative [2, 9]: 6.72 ± 0.33%
